Measured values published in patent US20230192897A1 (NUMAB THERAPEUTICS, published 2023).
One block for each binder: values may come before it.

Tests used:
Fc tagged human PDL1 = target: T1, Fc tagged human PDL1 (human, UniProt Q9NZQ7 19-239); assay: SPR
T1 construct: Bought (Sino Biological, cat. 10084-H02H); captured on the SPR chip; also called PDL1-Fc chimeric protein
Summary of the method: (§1)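 Kinetics were fitted with a one-to-one Langmuir model to give apparent ka, kd and KD. Binders at 0.12-90 nM (three-fold series) flowed 3 min, with 10 min dissociation and 3 M MgCl₂ regeneration, on a Biacore T200.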

Fc tagged human CD137 = target: T2, Fc tagged human CD137 (human, UniProt Q07011 24-186); assay: SPR
T2 construct: also called CD137-Fc chimeric protein
Summary of the method: as §1

[1] = target: T3, CD137 on Jurkat NFkB reporter cells (human, UniProt Q07011 24-255); assay: cell-based or functional assay
biotinylated human PDL1 [2] = target: T4, biotinylated human PDL1 (human, UniProt Q9NZQ7 19-238, limits assumed, biotinylated); assay: competition ELISA PD-1/PDL1
T4 construct: also called biotinylated PDL1

human PDL1 on cells = human PDL1 on cells (human, UniProt Q9NZQ7 19-290); assay: cell-based or functional assay
human serum albumin = target: T5, human serum albumin (human, UniProt P02768 25-609); assay: SPR, SA coupled to chip, pH 5.5
T5 construct: Coupled directly to the CM5 chip; also called HSA; human SA
Protocol: (§2) Affinity of molecules to serum albumin (SA) of the different species was determined by SPR measurements using a Biacore T200 device (GE Healthcare). SA was directly coupled to a CM5 sensor chip (GE Healthcare) using amine coupling chemistry. […] The assay was run in a 1× PBS-Tween buffer at pH 5.5.

mouse serum albumin = target: T6, mouse serum albumin (mouse, UniProt P07724 25-608); assay: SPR, SA coupled to chip, pH 5.5
T6 construct: Coupled directly to the CM5 chip; also called MSA; mouse SA
Protocol: as §2

biotinylated human PDL1 [3] = target: T4, biotinylated human PDL1; assay: competition ELISA B7.1/PDL1
Summary of the method: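 IC₅₀ was derived by four-parameter logistic fitting of reference-subtracted A450/690 readings. The signal came from streptavidin-polyHRP40 (10 ng/ml) with a 6-minute TMB reaction detecting biotinylated PDL1 bound to the plate. Pre-mixed samples sat 1 h at RT before a 1.5 h plate incubation.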

[4] = target: T7, mouse CD137-Fc chimeric protein (mouse, UniProt P20334 24-187, limits assumed); assay: SPR
T7 sequence (looked up): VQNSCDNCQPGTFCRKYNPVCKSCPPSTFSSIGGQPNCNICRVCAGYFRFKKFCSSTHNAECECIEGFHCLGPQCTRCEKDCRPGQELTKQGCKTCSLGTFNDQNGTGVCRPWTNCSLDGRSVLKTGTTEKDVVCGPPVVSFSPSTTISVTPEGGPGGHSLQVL
Summary of the method: as §1

[5] = target: cynomolgus CD137-Fc chimeric protein (cynomolgus monkey, UniProt A9YYE7 24-186); assay: SPR
Summary of the method: as §1

[6] = target: T3, CD137 on Jurkat NFkB reporter cells; assay: cell-based or functional assay; remark: listed apart in the source

Kd (Fc tagged human PDL1): 0.0037 nM
koff (Fc tagged human PDL1): 2.3e-05 s⁻¹
kon (Fc tagged human PDL1): 6.2e+06 M⁻¹ s⁻¹
Kd (Fc tagged human CD137): 2.6 nM
koff (Fc tagged human CD137): 0.0005 s⁻¹
IC50 (ng/ml), NFkB reporter, CHO-PD-L1, 24 h, +HSA [1]: 51 ng/mL
IC50 (ng/ml), NFkB reporter, HCC827 + IFNg, 24 h, +HSA [1]: 16.7 ng/mL
max. activation (%), NFkB reporter, CHO-PD-L1, 24 h, +HSA [1]: 152%
rel. IC50 (urelumab/test), NFkB reporter, CHO-PD-L1, 24 h, +HSA [1]: 0.97 fold
rel. IC50 (urelumab/test), NFkB reporter, HCC827 + IFNg, 24 h, +HSA [1]: 1.88 fold
IC50 (biotinylated human PDL1 [2]): 0.00174 µg/mL
rel. IC50 (IC50 avelumab/IC50 test) (biotinylated human PDL1 [2]): 1.26 fold
IC50 (ng/ml), NF-AT potency assay, +HSA (human PDL1 on cells): 10.2 ng/mL
rel. IC50 (avelumab/test), +HSA (human PDL1 on cells): 2.31 fold
Kd (human serum albumin): 2.9 nM
koff (human serum albumin): 0.00072 s⁻¹
kon (human serum albumin): 250000 M⁻¹ s⁻¹
kon (mouse serum albumin): 220000 M⁻¹ s⁻¹
IC50 (biotinylated human PDL1 [3]): 0.00781 µg/mL
rel. IC50 (IC50 avelumab/IC50 test) (biotinylated human PDL1 [3]): 1.58 fold
B1: PRO1186 (other)
chain: DIQMTQSPSSLSASVGDRVTITCQASQSIGTYLAWYQQKPGKAPKLLIYRAFILASGVPSRFSGSGSGTDFTLTISSLQPEDFATYYCQSNFYSDSTTIGPNAFGTGTKVTVLGGGGGSQVQLQESGPGLVKPSETLSLTCKVSGFSFSNSYWICWIRQPPGKGLEWIGCTFVGSSDSTYYANWAKGRVTISVDSSKNQFSLKLSSVTAADTAVYYCARHPSDAVYGYANNLWGQGTLVTVSSGGGGSGGGGSGGGGSGGGGSDIQMTQSPSSLSASVGDRVTITCQASQSINNVLAWYQQKPGKAPKLLIYRASTLASGVPSRFSGSGSGTDFTLTISSLQPEDFATYYCQSSYGNYGDFGTGTKVTVLGGGGGSQVQLQESGPGLVKPSETLSLTCKVSGFSFNSDYWIYWIRQPPGKGLEWIGSIYGGSSGNTQYASWAQGRVTISVDSSKNQFSLKLSSVTAADTAVYYCARGYVDYGGATDLWGQGTLVTVSSGGGGSGGGGSVVMTQSPSSLSASVGDRVTITCQASQIISSRSAWYQQKPGQPPKLLIYQASKLASGVPSRFSGSGSGTDFTLTISSLQPEDFATYYCQCTYIDSNFGAFGGGTKLTVLGGGGGSGGGGSGGGGSGGGGSEVQLVESGGGLVQPGGSLRLSCAASGFSFSSSYWICWVRQAPGKGLEWVGCVFTGDGTTYYASWAKGRFTISRDNSKNTVYLQMNSLRAEDTATYFCARPVSVYYYGMDLWGQGTLVTVSS
notes: trispecific scDb-scFv; also called 38-02-A04 sc01 scDb-i/37-20-B03sc01 scDb-o/23-13-A01-sc03 scFv

binding result [4]: no binding
kon (Fc tagged human PDL1): 2.2e+06 M⁻¹ s⁻¹
Kd (Fc tagged human CD137): 4.2 nM
Kd [5]: 6.9 nM
koff [5]: 0.01 s⁻¹
kon [5]: 1.5e+06 M⁻¹ s⁻¹
IC50 (ng/ml), NFkB reporter, CHO-PD-L1 [1]: 33.7 ng/mL
max. activation (%), NFkB reporter, CHO-PD-L1 [1]: 432%
rel. IC50 (urelumab/test), NFkB reporter, CHO-PD-L1 [1]: 2.35 fold
IC50 (biotinylated human PDL1 [2]): 0.0095 µg/mL
rel. IC50 (IC50 avelumab/IC50 test) (biotinylated human PDL1 [2]): 0.15 fold
IC50 (ng/ml), NF-AT potency assay (human PDL1 on cells): 88.5 ng/mL
rel. IC50 (avelumab/test) (human PDL1 on cells): 0.47 fold
IC50 (biotinylated human PDL1 [3]): 0.0093 µg/mL
rel. IC50 (IC50 avelumab/IC50 test) (biotinylated human PDL1 [3]): 0.78 fold
EC50, NFkB reporter, CHO-PDL1 [6]: 0.0337 µg/mL
B2: PRO951 (bispecific antibody)
chain: DIQMTQSPSSLSASVGDRVTITCQASQSINDYLAWYQQKPGKAPKLLIYKASTLASGVPSRFSGSGSGTDFTLTISSLQPEDFATYYCQQGYIITDIDNVFGTGTKVTVLGGGGGSEVQLVESGGGLVQPGGSLRLSCAASGFSFNNDYDMCWVRQAPGKGLEWIGCIDTGDGSTYYASWAKGRFTISRDNSKNTVYLQMNSLRAEDTAVYYCAREAASSSGYGMGYFDLWGQGTLVTVSSGGGGSGGGGSGGGGSGGGGSIQMTQSPSSLSASVGDRVTITCQSSQSVYDNNWLAWYQQKPGKAPKLLIYRASNLASGVPSRFSGSGSGTDFTLTISSLQPEDFATYYCQGTYLSSNWYWAFGTGTKVTVLGGGGGSQVQLQESGPGLVKPSETLSLTCKVSGFSFSSGYDMCWIRQPPGKGLEWIGCVVAGSVDITYYASWAKGRVTISVDSSKNQFSLKLSSVTAADTAVYYCARKDAYSDAFNLWGQGTLVTVSS
notes: scDb anti-PDL1 x CD137; also called 38-27-C05 sc02 scDb-i/33-03-G02 sc01 scDb-o
